Test results reported in PMC6194269, “Structural and functional characterization of hMEX‐3C Ring finger domain as an E3 ubiquitin ligase” (Protein Science : A Publication of the Protein Society, 2018).

Molecular target: the molecule itself
Assay: SEC; GST fusion digested by TEV protease and loaded on an S75 column; molecular weight calculated from elution volume

B1: Ring finger domain of hMEX-3C (domain or fragment, human, UniProt Q5U5Q3 603-659, looked up)
chain: RRKHDCVICFENEVIAALVPCGHNLFCMECANKICEKRTPSCPVCQTAVTQAIQIHS
notes: two zinc ions per monomer; also called hMEX-3C Ring finger domain; hMEX-3C Ring homodimer; source: E. coli BL21 (DE3), purified (GST column, Superdex 75); GST fusion digested by TEV protease
  stoichiometry N: 2
